Source: the supplement of paper PMC9732359
± gives the uncertainty stated by the source.

Experiment: protein stability index of a GFP-peptide fusion (yeast GPS) (PSI 1-4); higher = more stable; sorted into four equal gates, so the index is relative within each strain
Procedure, shortened: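 Plasmids isolated from each sorting gate were PCR-amplified and Illumina-sequenced, and barcodes assigned the reads to strains. The gates, four of equal size, were set by GFP/Cherry fluorescence ratio on mid-log cultures in leucine-free medium. These cultures were yeast carrying a pooled library of tiled 17-residue yeast protein peptides fused downstream of GFP on a plasmid that also expresses Cherry. The protein stability index is the sum of every gate's read frequency times its gate number.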

| Sequence | protein stability index (doa10∆) | protein stability index (pdr5∆) | protein stability index (san1∆) | protein stability index (ubr1∆) |
| --- | --- | --- | --- | --- |
| LRSTENGIVDQVLVTTN [RPB2] | 2.39 ± 0.095 | 2.03 ± 0.11 | 2.46 ± 0.099 | 1.82 ± 0.055 |
| LRVEHIKHSKCRQEFLE [RPL21A] | 1.59 ± 0.21 | 2.43 ± 0.16 | 1.17 ± 0.18 | 1.31 ± 0.11 |
| LSATQFTQPALTLMEKA [FAS1] | 2.37 ± 0.073 | 2.56 ± 0.058 | 2.7 ± 0.049 | 2.58 ± 0.054 |
| LSCQYDNTVRTSANGIV [RPO31] | 1.32 ± 0.19 | 1.26 ± 0.14 |  |  |
| LSDRANKNQDAFEAELS [ARP9] | 3.28 ± 0.072 | 3.13 ± 0.08 | 3.04 ± 0.07 | 3.31 ± 0.057 |
| LSDRITGNFIIPSGNVW [PRP8] | 2.76 ± 0.1 | 3.1 ± 0.087 | 2.84 ± 0.064 | 2.9 ± 0.065 |
| LSGKFSTIPTRENGKGG [ROX3] | 3.28 ± 0.23 | 3.22 ± 0.11 | 3.01 ± 0.063 | 3.1 ± 0.23 |
| LSGNSVEDVSQNAADLQ [RPL9A] | 3.31 ± 0.15 | 3.55 ± 0.15 | 2.78 ± 0.13 | 3.31 ± 0.058 |
| LSHGSLEHVLLVPTASF [FAS1] | 1.24 ± 0.039 | 1.4 ± 0.043 | 1.33 ± 0.079 | 1.19 ± 0.029 |
| LSIKNSFIINFISNLPN [NUT1] | 1.92 ± 0.07 | 1.81 ± 0.05 | 1.87 ± 0.1 | 1.79 ± 0.04 |
| LSIQYMIQKVMEYLKSS [RPN5] | 1.38 ± 0.082 | 1.56 ± 0.082 | 1.59 ± 0.2 | 1.69 ± 0.11 |
| LSISVAAEPMDSKMIQD [SNU114] | 2.73 ± 0.061 | 3.03 ± 0.081 | 2.84 ± 0.077 | 3.18 ± 0.11 |
| LSKVAALSGNEGDASPF [RPB2] | 1.91 ± 0.046 | 2.79 ± 0.052 | 2.15 ± 0.083 | 2.59 ± 0.071 |
| LSKVFSDVLFEFTKINT [YJL039C/NUP192] | 2.87 ± 0.11 | 2.5 ± 0.068 | 2.09 ± 0.13 | 2.94 ± 0.051 |
| LSKVSLLTPDIGAVYSG [PRE8] | 1.68 ± 0.055 | 1.99 ± 0.073 | 1.73 ± 0.09 | 2.07 ± 0.071 |
| LSLHTGFIENCNGSALV [MTR3] | 2.65 ± 0.066 | 3 ± 0.06 | 2.79 ± 0.058 | 2.74 ± 0.067 |
| LSLTLNTHYHADYRLIL [SNF2] | 2.83 ± 0.077 | 2.98 ± 0.08 | 2.75 ± 0.1 | 2.65 ± 0.073 |
| LSNIEAQFLRSVVHPGE [RPO21] | 2.77 ± 0.1 | 2.73 ± 0.21 | 2.45 ± 0.1 | 2.97 ± 0.14 |
| LSNIPLLLITHHSWSQS [ARP9] | 2.25 ± 0.075 | 1.6 ± 0.045 | 1.51 ± 0.073 | 1.96 ± 0.047 |
| LSPPEFLFHAISGREGL [RPO31] | 2.17 ± 0.047 | 1.79 ± 0.053 | 1.48 ± 0.14 | 1.63 ± 0.046 |
| LSPSGHKTFLVANVKDL [RPL32] |  | 3.33 ± 0.26 | 2.84 ± 0.095 | 2.84 ± 0.17 |
| LSQVYPTLVRSVISGNL [CSN12] | 2.54 ± 0.072 | 2.92 ± 0.08 | 2.83 ± 0.1 | 2.48 ± 0.078 |
| LSRNGKPVMEVTSSFFY [FAS1] | 3.04 ± 0.077 | 2.99 ± 0.089 | 2.79 ± 0.086 | 2.6 ± 0.073 |
| LSSAGKNSSVSSLMNGL [SRB5] |  | 1.24 ± 0.11 |  |  |
| LSSLILKIFQEQSLEVF [SRB8] | 2.5 ± 0.087 | 2.67 ± 0.12 | 2.88 ± 0.09 | 2.71 ± 0.1 |
| LSTRAGGLGLNLQTADT [SNF2] | 2.75 ± 0.084 | 2.7 ± 0.068 | 2.7 ± 0.076 | 3.2 ± 0.058 |
| LSYISALGMMTRISSQF [RET1] | 1.41 ± 0.063 | 1.34 ± 0.057 | 1.43 ± 0.16 | 1.14 ± 0.054 |

| Sequence | protein stability index (doa10∆) | protein stability index (pdr5∆) | protein stability index (san1∆) | protein stability index (ubr1∆) |
| --- | --- | --- | --- | --- |
| LTATPNSINKTTVPFKE [POP1] | 1.75 ± 0.061 | 2.44 ± 0.06 | 1.66 ± 0.14 | 2.48 ± 0.054 |
| LTGSPNNPLVQKKNFLF [ARP7] | 2.9 ± 0.092 | 2.89 ± 0.1 | 2.27 ± 0.16 | 3.18 ± 0.066 |
| LTKAQKYLDQVLDHQRA [RPL17B] | 3 ± 0.096 | 2.96 ± 0.092 | 3.03 ± 0.079 | 2.98 ± 0.042 |
| LTKAQKYLEQVLDHQRA [RPL17A] | 2.69 ± 0.056 | 2.73 ± 0.063 | 2.47 ± 0.062 | 2.51 ± 0.039 |
| LTLIFYDVLHDVFTINP [YML103C/NUP188] | 1.7 ± 0.071 | 2.09 ± 0.051 | 2.3 ± 0.071 | 2.55 ± 0.054 |
| LTLMEKAAFEDLKSKGL [FAS1] | 3.03 ± 0.078 | 3.29 ± 0.088 | 3.2 ± 0.054 | 3.26 ± 0.052 |
| LTNMMSPMGNAYSMGAQ [PGD1] | 2.34 ± 0.062 | 2.64 ± 0.077 | 2.49 ± 0.084 | 2.68 ± 0.044 |
| LTNQLYKNHELLKLERK [SNF2] | 3.15 ± 0.063 | 3.12 ± 0.059 | 3.11 ± 0.039 | 3.2 ± 0.053 |
| LTRQPTEGRSRDGGLRL [RET1] | 2.07 ± 0.07 | 2.14 ± 0.077 | 2.06 ± 0.15 | 2.01 ± 0.059 |
| LTSNLSNYSRTMTISHL [YJL039C/NUP192] | 2.56 ± 0.074 | 2.32 ± 0.061 | 1.98 ± 0.084 | 2.48 ± 0.04 |
| LTSTKVKQLENVSSNIV [RPS20] | 1.75 ± 0.075 | 2.16 ± 0.12 | 2.65 ± 0.11 | 3.19 ± 0.075 |
| LTVFYAIKKFKTEKDGV [SSN3] | 2.17 ± 0.12 | 1.74 ± 0.057 | 2.42 ± 0.061 | 1.97 ± 0.085 |
| LVAKFLYPIFLLDDKKL [YJR042W/NUP85] | 1.49 ± 0.034 | 1.29 ± 0.033 | 1.16 ± 0.073 | 1.26 ± 0.027 |
| LVGSWKKDRATGDADEP [RPO21] | 3.14 ± 0.22 | 3.55 ± 0.11 | 3.15 ± 0.11 | 3.46 ± 0.081 |
| LVSNPHEIYGSMPLEQL [SRB4] | 3.01 ± 0.12 | 2.26 ± 0.065 | 3.1 ± 0.19 | 1.89 ± 0.1 |
| LVTAGVAAAGITASTLL [CYT1] | 1.57 ± 0.058 | 1.76 ± 0.066 | 1.62 ± 0.098 | 1.67 ± 0.044 |
| LWDIMGDRQRLGEEHPL [RPT1] |  |  | 3.31 ± 0.23 |  |
| LWGPHGLNSDAEEVRNF [ECM29] | 3.77 ± 0.29 | 3.59 ± 0.15 | 3.5 ± 0.27 | 3.82 ± 0.16 |
| LWNLNAYRTDVIQALGG [PRP8] | 2.17 ± 0.055 | 2.16 ± 0.05 | 1.88 ± 0.088 | 1.93 ± 0.041 |
| LYAITFRKGLGNPLLYD [QCR2] | 1.25 ± 0.17 | 1.32 ± 0.25 |  |  |
| LYASDYASYFPYLLETY [RPN7] | 1.62 ± 0.077 | 1.83 ± 0.086 | 1.39 ± 0.09 | 1.18 ± 0.044 |
| LYEKLKQEIMMSDLFTF [ISW2] | 2.69 ± 0.099 | 2.34 ± 0.063 | 2.14 ± 0.1 | 2.64 ± 0.06 |
| LYFYRDPEEVEQQVAEE [RPS0A] | 3.31 ± 0.087 | 3.31 ± 0.095 | 3.1 ± 0.082 | 3.56 ± 0.076 |
| LYHHTTKTILSGTDGST [SRP72] | 3.04 ± 0.068 | 2.82 ± 0.051 | 2.49 ± 0.088 | 2.83 ± 0.043 |
| LYQSLTPQQLQMIQQRH [SNF5] | 1.77 ± 0.037 | 2.24 ± 0.04 | 1.69 ± 0.053 | 2.08 ± 0.033 |
| LYVPHSENRFPGWDFET [RPL5] | 2.44 ± 0.12 | 2.89 ± 0.069 | 2.21 ± 0.1 | 2.68 ± 0.13 |
